According to patent publication US20180118802A1 (published 2018):
Positions count from the first letter of the chain named. Read-outs that look alike come from different tables or passages of the source.

T1: LRP2 CR89 Y1042W V1047D R1088D (human, UniProt P98164 1022-1105)
T1 construct: also called WDWD
T1 sequence: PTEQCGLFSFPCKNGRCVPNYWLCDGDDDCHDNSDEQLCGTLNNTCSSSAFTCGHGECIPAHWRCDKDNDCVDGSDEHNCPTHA

T2: LRP2 CR89 Y1042W (human, UniProt P98164 1022-1105)
T2 construct: also called WVWR
T2 sequence: T1 sequence with D27V, D68R

T3: LRP2 CR89 V1047D R1088D (human, UniProt P98164 1022-1105)
T3 construct: also called YDWD
T3 sequence: T1 sequence with W22Y

T4: LRP2 CR89 Y1042W R1088D (human, UniProt P98164 1022-1105)
T4 construct: also called WVWD
T4 sequence: T1 sequence with D27V

T5: LRP2 CR89 V1047D (human, UniProt P98164 1022-1105)
T5 construct: also called YDWR
T5 sequence: T1 sequence with W22Y, D68R

T6: LRP2 CR89 Y1042W V1047D (human, UniProt P98164 1022-1105)
T6 construct: also called WDWR
T6 sequence: T1 sequence with D68R

B1: RAP d3 (ligand, not shown: small tags and cut ends)
chain: LDRLRRVSHQGYSTEAEFEEPRVIDLWDLAQSANLTDKELEAFREELKHFEAKIEKHNHYQKQLEIAHEKLRHAESVGDGERVSRSREKHALLEGRTKELGYTVKKHLQDLSGRISRAR
notes: also called wild-type RAP d3
B2: MegaRAP1 d3 (ligand, not shown: small tags and cut ends)
chain: B1 chain with S13T, E17K, H49Y, E51K, K56A, K70E
notes: also called RAPv2A d3; RAP v2
B3: MAT CR12 (other)
chain: PCPGQFTCRTGRCIRKELRCDGWADCTDHSDELNCSCDAGHQFTCKNKFCKPLFWVCDSVNDCGDNSDEQGCS
notes: also called ST14 CR12; not shown: N-terminal hexahistidine/S-peptide tag of pET30(+)a

Experiments:
LRP1 CR3-5 [1] = molecular target: T7, LRP1 CR3-5 (human, UniProt Q07954 852-973); assay: solid-phase binding assay, CR protein coated, anti-RAP detection
T7 construct: range 852-973; not shown: N-terminal hexahistidine and S-peptide of pET30(+)a
Protocol: (§1) Wells were washed with TBSTC and bound ligands detected with polyclonal anti-RAP (BP41/42, 1:1,000, BioMarin). Excess primary antibody was removed and wells washed before incubation with the secondary antibody, HRP-conjugated goat anti rabbit IgG (Bio-Rad). After washing, TMB substrate solutions (Bio-Rad) were added to detect HRP. Color development was stopped with 1N HCl. Absorption at 450 nm was measured with a microplate spectrophotometer (Molecular Devices). Data were plotted and Kd values derived by non-linear regression with the assumption of single-site binding (GraphPad Prism).
(§2) Next, the binding of RAP d3 and MegaRAP1 d3 proteins to LRP1 CR3-5 and LRP2 CR89 was assessed. […] In all cases, 10 mM EGTA prevented binding of both RAP d3 and MegaRAP1 d3 to CR proteins. Since calcium was the only divalent metal ion present in the binding buffer, this observation is consistent with both RAP d3 and MegaRAP1 d3 binding to calcium-loaded CR pairs. […] Therefore, wild-type RAP d3 and MegaRAP1 d3 have inverted binding preferences for these two receptor fragments.

LRP2 CR89 [2] = molecular target: T8, LRP2 CR89 (human, UniProt P98164 1025-1102); assay: as above
T8 construct: domain: CR89; also called YVWR; not shown: N-terminal hexahistidine and S-peptide of pET30(+)a
Protocol: as §1, §2

[3] = molecular target: T1, LRP2 CR89 Y1042W V1047D R1088D; assay: as above
Protocol: (§3) Solid phase binding assays—Purified, refolded CR protein (1 μg) was bound to Nunc Maxisorp™ 96-well plates in TBS pH 8 supplemented with 5 mM CaCl₂ (TBSC) overnight at 4° C. Wells were washed with TBSC and then blocked with TBSC containing 2% bovine serum albumin (BSA). RAP ligands were then incubated with the immobilized receptor at a range of concentrations for 2 hours in the above blocking buffer supplemented with 0.05% Tween-20 at room temperature. Control wells contained no added ligand. As an additional control, to determine whether the absence of calcium affected binding, 10 mM EGTA was included in the incubation medium for some samples. Wells were washed with TBSTC and bound ligands detected with polyclonal anti-RAP (BP41/42, 1:1,000, BioMarin). Excess primary antibody was removed and wells washed before incubation with the secondary antibody, HRP-conjugated goat anti rabbit IgG (Bio-Rad). After washing, TMB substrate solutions (Bio-Rad) were added to detect HRP. Color development was stopped with 1N HCl. Absorption at 450 nm was measured with a microplate spectrophotometer (Molecular Devices). Data were plotted and Kd values derived by non-linear regression with the assumption of single-site binding (GraphPad Prism).
(§4) One premise of this work was that amino acids at A, C, A′ and C′ within the calcium-binding loops of a CR pair were key determinants of binding affinity for RAP and would be similarly important for binding of RAP variants. To test this idea, mutant LRP2 CR89 were prepared in which the native, non-canonical residues at these positions were sequentially substituted with the non-native, canonical residues. As defined above, the A, C, A′, C′ string for LRP2 CR89 is YVWR. Mutants included LRP2 CR89 Y1042W (WVWR), LRP2 CR89 V1047D (YDWR), LRP2 CR89 R1088D (YVWD), LRP2 CR89 V1047D R1088D (YDWD), LRP2 CR89 Y1042W V1047D R1088D (WDWD), LRP2 CR89 Y1042W V1047D (WDWR), LRP2 CR89 Y1042W R1088D (WVWD). Binding to both RAP d3 and MegaRAP1 d3 were measured for each LRP2 CR89 mutant by solid-phase assay.

LRP2 CR89 Y1042W = molecular target: T2, LRP2 CR89 Y1042W; assay: as above
Protocol: as §3, §4

LRP2 CR89 V1047D R1088D = molecular target: T3, LRP2 CR89 V1047D R1088D; assay: as above
Protocol: as §3, §4

LRP2 CR89 Y1042W R1088D = molecular target: T4, LRP2 CR89 Y1042W R1088D; assay: as above
Protocol: as §3, §4

LRP2 CR89 V1047D = molecular target: T5, LRP2 CR89 V1047D; assay: as above
Protocol: as §3, §4

LRP2 CR89 [4] = molecular target: T8, LRP2 CR89; assay: as above; remark: listed apart in the source
Protocol: as §3, §4

LRP2 CR89 R1088D = molecular target: T9, LRP2 CR89 R1088D (human, UniProt P98164 1022-1105); assay: as above
T9 construct: also called YVWD
Protocol: as §3, §4

VLDLR CR6-8 = molecular target: T10, VLDLR CR6-8 (human, UniProt P98155 235-358); assay: as above
T10 construct: range 235-358; not shown: N-terminal hexahistidine and S-peptide of pET30(+)a
Text: (§5) Alternatively, the affinity differences between MegaRAP I d3 and MegaRAP1 d3 E270K may have been insufficient to alloW the latter to predominate upon iterative panning. A double revertant, T213S, E270K, had binding behavior that was not distinguishable from MegaRAP1 d3 in our assays. […] The binding behavior of the K251E, E270K double revertant implies a strong dependence of the affinity of MegaRAP1 d3 for LRP2 CR89 on the E251K mutation. […] Therefore, the K256A mutation in MegaRAP1 d3 is a crucial determinant of the ability of this variant to discriminate between the two receptor fragments, exerting its effect by negatively impacting affinity for LRP1 CR3-5 while at the same time improving affinity for LRP2 CR89.

LRP1 CR3-5 [5] = molecular target: T7, LRP1 CR3-5; assay: as above; remark: listed apart in the source
Text: as §5

LRP1 CR3-5 [6] = molecular target: T7, LRP1 CR3-5; assay: as above; remark: listed apart in the source
Protocol: as §3

LRP2 CR89 Y1042W V1047D = molecular target: T6, LRP2 CR89 Y1042W V1047D; assay: as above
Protocol: as §3, §4

RAP d3 = molecular target: B1; assay: solid-phase binding assay, ligand at 80 nM, CR protein coated (FIG. 7)
Protocol: as §3
The apparent dissociation constant for binding of VRAP1 d3 to VLDLR CR78 was determined to be 44±9 nM. […]

T7 sequence (Q07954 852-973, form in doubt): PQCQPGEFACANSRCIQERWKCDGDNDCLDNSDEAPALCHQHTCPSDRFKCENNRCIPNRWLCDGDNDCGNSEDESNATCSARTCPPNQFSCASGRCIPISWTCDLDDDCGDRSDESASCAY
T8 sequence (P98164 1025-1102): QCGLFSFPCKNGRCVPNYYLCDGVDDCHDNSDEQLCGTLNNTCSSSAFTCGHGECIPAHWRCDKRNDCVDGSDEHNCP

% max (LRP1 CR3-5 [1]) [%]	Kd (LRP1 CR3-5 [1]) [nM]	% max (LRP2 CR89 [2]) [%]	% max bind [3] [%]	% max bind (LRP2 CR89 Y1042W) [%]	% max bind (LRP2 CR89 V1047D R1088D) [%]	% max bind (LRP2 CR89 Y1042W R1088D) [%]	% max bind (LRP2 CR89 V1047D) [%]	% max bind (LRP2 CR89 [4]) [%]	% max bind (LRP2 CR89 R1088D) [%]	Kd (VLDLR CR6-8) [nM]	Kd (LRP1 CR3-5 [5]) [nM]	Kd (LRP1 CR3-5 [6]) [nM]	binding result [3]	binding result (LRP2 CR89 Y1042W)	binding result (LRP2 CR89 Y1042W V1047D)	binding result (LRP2 CR89 V1047D R1088D)	binding result (LRP2 CR89 Y1042W R1088D)	binding result (LRP2 CR89 V1047D)	binding result (RAP d3)	Binder
76	16	5	15	9	6	16	6	7	7	> 300	11	16	–	–	–	–	–	–	–	B1
–	–	–	–	5	–	–	–	–	–	–	–	–	no binding	no binding	no binding	no binding	no binding	no binding	–	B2
–	–	–	–	–	–	–	–	–	–	–	–	–	–	–	–	–	–	–	no binding (tested: 80 nM)	B3
